In US9371393B2, “Class I anti-CEA antibodies and uses thereof” (Immunomedics, Inc., priority 2009, dated 2016):

B1: MN-15: murine Class I anti-CEA MAb, IgG1 kappa, binds A1B1 domain of CEACAM5 and CEACAM6 (antibody, V domains shown)
VL: DIQLTQSPAIMSASPGEKVTMTCSASSRVSYIHWYQQKSGTSPKRWIYGTSTLASGVPARFSGSGSGTSYSLTISSMEAEDAATYYCQQWSYNPPTFGAGTKLELKR
VH: EVRLVESGGGLVQGPGSLRLSCAASGFALTDYYMSWVRQSPGKTLEWLGFIANKANGHTTDYSPSVKGRFTISRDNSQTILYLQMNTLRTEDSATYYCARDMGIRWNFDVWGQGTTVTVSS
B2: MN-15 Fab′: monovalent Fab′ fragment of murine MN-15 (antibody, V domains shown)
VL: B1 VL
VH: B1 VH

Legend:
[1] = tested on: HT-29 cells; experiment: Spontaneous migration (wound-healing) assay, HT-29; format: cell-based, human; set-up: dose or concentration left out as unconfirmed; details: antibody, 18 to 24 hours, untreated 14.9±9.1, n=10
Experimental: (§1) Spontaneous migration assay—Glass coverslips were placed in 100×15 mm Petri dishes and UV sterilized overnight. Suspensions of cancer cells (2-4×10^5 cells/mol) were prepared from 80% to 90% confluent monolayers. Cells were plated on each coverslip and incubated for 2 to 5 days to reach 70% to 80% confluence. Two diagonal cell-free paths (“wounds”) were created by dragging a sterile yellow pipette tip across the surface. Monolayers were rinsed several times to remove floating cells and 4 mol of fresh medium were added back in the absence or presence of antibody IgG or Fab′ (10 μg/mol) and incubated at 37° C. After 18 to 24 hours, the medium was removed and coverslips stained with 1 mol Wright-Giemsa for 1 minute. The stain was washed off with distilled water, air-dried, and mounted onto slides with Cytoseal 60. Repopulation of the wound space was evaluated by counting the number of cells that migrated into the wound area in 10 representative fields. Regions of migration were photographed for documentation.

[2] = tested on: LS174T cells; experiment: Spontaneous migration (wound-healing) assay, LS174T; format: cell-based, human; set-up: dose or concentration left out as unconfirmed; details: antibody, 18 to 24 hours, untreated 38.8±10.9
Experimental: as §1

[3] = tested on: MDA-231 cells; experiment: Collagen-based invasion assay, MDA-231; format: cell-based, human; details: MDA-231, expresses neither antigen
Experimental: (§2) Collagen-based invasion assay—The assay was done using CHEMICON® Kit (#ECM551, MILLIPORE®, Billerica, Mass.). Tumor cells at 80% confluence and were serum-starved for 18 to 24 hours before the assay was used. Cells were harvested with 5 mol of 2 mmol/L EDTA/PBS per 100-mm dish and incubated at 37° C. for 5 to 15 minutes. Cells were collected into 10 to 20 mol of quenching medium (serum-free DMEM containing 5% BSA) to inactivate trypsin/EDTA from the harvesting buffer. Cells were pelleted, resuspended in quenching medium (1×10^6 cells/mol), and appropriate antibody Fabs were added to individual cell aliquots. Cell invasion potential was determined as follows. Baseline invasion and invasion in the presence of a chemoattractant (10% FBS) were measured after a 72-hour incubation period at 37° C. in a 5% CO2 incubator. The bottom side of the collagen-coated polycarbonate membrane insert of the invasion chamber was placed in 400 μL of cell stain for 20 minutes at room temperature and washed. The dye was extracted and transferred into a 96-well microtiter plate for colorimetric measurements (A560 nm).

[4] = target: T1, CEA (HeLa-CEA2) (Homo sapiens, UniProt P06731); experiment: Indirect flow cytometry, HeLa-CEA2; format: binding; details: antibodies at 1/50 dilution of 1 mg/ml stocks
T1 construct: expressed in transfected cells; host or cells: HeLa (HeLa-CEA2)
T1 sequence (P06731 35-676): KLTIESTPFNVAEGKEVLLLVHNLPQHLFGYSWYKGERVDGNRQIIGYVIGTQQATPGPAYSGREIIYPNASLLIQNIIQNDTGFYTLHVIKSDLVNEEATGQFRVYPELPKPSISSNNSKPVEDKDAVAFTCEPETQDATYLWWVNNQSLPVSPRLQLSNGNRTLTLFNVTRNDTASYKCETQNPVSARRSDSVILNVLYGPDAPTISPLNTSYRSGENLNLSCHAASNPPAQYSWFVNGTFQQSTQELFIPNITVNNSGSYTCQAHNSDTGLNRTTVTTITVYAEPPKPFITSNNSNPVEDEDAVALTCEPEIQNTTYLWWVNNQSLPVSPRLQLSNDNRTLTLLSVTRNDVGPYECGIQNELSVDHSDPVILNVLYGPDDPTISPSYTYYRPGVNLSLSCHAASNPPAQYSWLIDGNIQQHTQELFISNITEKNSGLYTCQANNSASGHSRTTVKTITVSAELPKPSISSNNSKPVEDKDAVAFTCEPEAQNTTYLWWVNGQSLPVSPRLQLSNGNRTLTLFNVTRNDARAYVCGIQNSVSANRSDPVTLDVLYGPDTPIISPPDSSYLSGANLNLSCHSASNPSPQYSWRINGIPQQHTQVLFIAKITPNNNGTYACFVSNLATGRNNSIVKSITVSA
Experimental: The reactivity of antibodies was tested by flow cytometry with a Becton-Dickinson FACSCAN®. The biotinylated second antibody was directed against mouse IgG and was detected by a streptavidin/phycoerythrin conjugate. Tests were carried out with antibodies at 1/50 dilution of 1 mg/ml stocks.
The antibodies MN-3 and MN-15 were tested for recognition of HeLa cells transfected with cDNA coding for CEA (HeLa-CEA2), NCA-90 (HeLa-KNC6/S44) and NCA-95 (HeLa-CGM6/1). As a negative control, HeLa cells transfected with the plasmid pSV2-Neo (control HeLa cells, HeLa-NeoA) were used. In addition to the antibodies MN-3 and MN-15, three control antibodies were included: […]

[5] = tested on: MCF-7 cells adhesion to HUVEC; experiment: Endothelial cell adhesion assay, MCF-7; format: cell-based, human
Experimental: Endothelial cell adhesion assay—Human umbilical vein endothelial cells (HUVEC; Cambrex, San Diego, Calif.) were grown in collagen-coated dishes in EGM Media in a humidified atmosphere with 5% CO2 at 37° C. At passages 2 to 5, cells were plated at a density of 4×10^4 cells per well in 96-well plates 24 hours before the assay. Interleukin-1β (IL-1β, 1 ng/mol) was added 4 hours before the assay. At the start of the study, the medium with the IL-1β was removed and fresh DMEM with 1% bovine serum albumin (BSA) added and incubated for 30 minutes. Fresh medium without antibodies or with 10 μg/mol of MN-15 Fab′, MN-3 Fab′, or Ag8 Fab′ was added. Tumor cells (1×10^6 cells/mol) prelabeled overnight with ^3H-thymidine (100 μL per well using 1.0 μCi/mL) were added to HUVEC cultures and incubated for 30 minutes at 37° C. with rotation in medium with 20% FBS. Samples were washed thrice with PBS to remove unattached cells. Attached cells were solubilized with 0.1 N NaOH and radioactivity was measured in a β scintillation counter. The cpm attached/total cpm added (attaching potential) was determined.

[6] = tested on: BXPC3 cells; experiment: Collagen-based invasion assay, BXPC3; format: cell-based, human; details: 10% FBS chemoattractant, 72-hour incubation
Experimental: as §2

Molecule	number of migrating cells per field [1]	migrating cells per field [2]	effect on invasion [3]	binding to CEA [4]	decrease in adhesion [5]	reduction in cell invasion [6]
B1	5.5±1.8 cells	20.3±0.1 cells	not reduced	binds to all three antigens	–	–
B2	5.4±0.8 cells	21.6±1.2 cells	not reduced	–	41%	44%
